Reference: US10005817 (EUMEDERIS PHARMACEUTICALS, dated 2018)
Non-standard residues stand in square brackets, D forms with d. No end group written: not given here. *: point of attachment. Dmt = Cc1cc(O)cc(C)c1C[C@H](N)C(=O)O; Tic = O=C(O)[C@@H]1Cc2ccccc2CN1; NHBn = c1ccc(CN*)cc1

B1: EU-A620 (peptide)
peptide: [Dmt][Tic]FK(1‑methyl β‑D‑glucuronyl)-NHBn
B2: EU-A639 (peptide)
peptide: [Dmt][Tic]F[dK](1‑methyl β‑D‑glucuronyl)-NHBn
B3: EU-A180 (peptide)
peptide: H-[Dmt][Tic]FK(1'‑octyl β‑D‑glucuronyl)-NH2
B4: EU-A178 (peptide)
peptide: H-[Dmt][Tic]FK(1'‑methyl β‑D‑glucuronyl)-NH2

molecular target: mu opioid receptor; test: cell-based or functional assay
Sequence (P35372 whole entry): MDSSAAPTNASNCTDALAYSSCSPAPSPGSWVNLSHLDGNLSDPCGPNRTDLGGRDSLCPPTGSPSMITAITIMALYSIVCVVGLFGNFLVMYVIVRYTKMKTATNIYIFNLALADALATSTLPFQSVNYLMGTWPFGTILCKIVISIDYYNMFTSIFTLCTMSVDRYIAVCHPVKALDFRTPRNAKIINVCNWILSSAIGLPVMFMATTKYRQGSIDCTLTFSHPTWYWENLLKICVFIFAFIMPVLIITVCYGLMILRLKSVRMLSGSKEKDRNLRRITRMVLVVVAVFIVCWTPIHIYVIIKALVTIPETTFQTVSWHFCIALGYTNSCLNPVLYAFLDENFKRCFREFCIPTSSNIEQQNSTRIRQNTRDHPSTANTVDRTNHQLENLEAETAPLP

| Binder | MOP agonist EC50 [nM] |
| --- | --- |
| B1 | 480 |
| B2 | 280 |
| B3 | 36 |

molecular target: delta2 opioid receptor; test: cell-based or functional assay

| Binder | DOP antagonist IC50 [nM] |
| --- | --- |
| B1 | < 0.1 |
| B2 | < 0.1 |
| B3 | < 0.1 |
| B4 | < 0.1 |
